This note sets out measurements from patent US20250340649A1 (RUTGERS THE STATE UNIVERSITY OF NEW JERSEY, published 2025).

The target of experiment [1] is T1, Biotinylated Human Her2/ErbB2 Protein, His, Avitag (AcroBiosystem HE2-H82E2) (human, UniProt P04626 23-652, biotinylated (Avitag)).
T1 construct: Bought protein; Loaded on streptavidin sensors for BLI; also called biotinylated HER2; HER2 antigen
As to the kind of experiment: BLI (Octet), biotinylated HER2 on streptavidin sensor. For orientation: In BLI a coated tip is dipped into the sample, and binding shifts an interference pattern.

In experiment [2] the target is T2, HER2 on the surface of HER2+ cancer cells (BT474, SKOV-3) (human, UniProt P04626 23-1255).
T2 construct: whole, on cells; also called human epidermal growth factor receptor 2
In words: flow cytometry on BT-474 cells (HER2+), 100 nM binding sites. On the procedure:
(§1) OVASC-1 is an ascites-derived epithelial ovarian cancer cells obtained from a patient with advanced metastatic disease (11, 12). The expressed VHHs were then incubated with HER2⁺ (BT474, JIMT-1, and SKOV-3) and HER2⁻ (MDA-MB-231) cancer cell lines. Approximately 10⁶ cells were counted and washed using DPBS-1% FBS. […] After washing, FITC-conjugated anti-Human IgG or anti-Histag antibody were added and incubated on ice for 60 min. Cells were washed three times and then analyzed using Beckman-Coulter Gallios flow cytometer at Rutgers Flow cytometry core facility.
(§2) In the next step, the ability of the VHHs to recognize and bind to HER2 on the surface of HER2+ cancer cells was evaluated. […] MDA-MB-231 and OVASC-1 (HER2⁻) cancer cells were used as negative controls.
On the technique in general: A flow cytometer gives signals particle by particle.

A further experiment concerns the target T3, Bovine serum albumin (bovine, UniProt P02769 25-607).
T3 construct: Control antigen; also called BSA
In words: ELISA, periplasmic extract on coated antigen, anti-HA-HRP. The text has this: (§3) FIGS. 4A-4B. FIG. 4A) PBMCs were isolated using Ficoll-Paque method. Then, the RNAs were extracted, cDNA library was generated, genes amplified, and then cloned into pMECS-GG phagemids. The phagemids were used in phage display and the screened candidates were used to infect TG1 bacteria. Colonies were selected, grown, lysed, and the lysates removed. FIG. 4B) The lysates were then used in ELISA to screen for VHHs with the highest affinity to HER2 and with negligible binding to HER1, HER3, and HER4. Bovine serum albumin (BSA) and skim milk were used as controls.
(§4) The next day, each well was washed three times with washing buffer (DPBS+0.1% Tween 20) and then incubated with blocking buffer (2% skimmed milk) for 2 h at RT to block the free binding sites. Next, blocking buffer was replaced with 100 μL of periplasmic extract from above and incubated for 1 h at RT while shaking at 700 rpm. Each well was washed six times with washing buffer (DPBS+0.1% Tween 20) followed by addition of 100 μL HRP Anti-HA tag antibody (1:10000 dilution) and incubation for 1 h at RT while shaking at 700 rpm. Each well was washed again six times, followed by addition of 50 μL 1-Step™ Turbo TMB-ELISA substrate solution at incubation at RT for 15 min (without shaking and at dark). The reaction was stopped by adding 50 μL of stop solution ([…] sulfuric acid) and the plate was read at 450 nm using 630 nm as a reference (450/630 nm).
(In general: ELISA stands for enzyme-linked immunosorbent assay.)

The next experiment concerns the target T4, HER1 (human, UniProt P00533 25-645).
T4 construct: The text says only 'HER1'; also called Recombinant human EGFR protein (Fc Chimera), Abcam ab155726; Fc part of the bought chimera not given
The description is as above.
From the text: as §3, §4

The target of a further experiment is T5, HER3 (human, UniProt P21860 20-643, limits assumed).
T5 construct: also called Recombinant Human ErbB 3 protein, Abcam ab196072
The description is as above.
From the text: as §3, §4

The target in experiment [3] is T2, HER2 on the surface of HER2+ cancer …. As to the kind of experiment: flow cytometry on SKOV-3 cells (HER2+), 100 nM binding sites. The procedure: as §1, §2
Experiment [4] has as its target T1, Biotinylated Human Her2/ErbB2 Protein, …. As to the kind of experiment: BLI (Octet), biotinylated HER2 on streptavidin sensor, VHH 1.875-60 nM.
For experiment [5], the target named is T6, HER2 protein (coated on ELISA plate) (human, UniProt P04626 23-652, limits assumed).
T6 construct: also called HER2 antigen
In words: ELISA, periplasmic extract on coated antigen, anti-HA-HRP.
From the text: as §3, §4

Experiment [6] addresses T2, HER2 on the surface of HER2+ cancer …. As to the kind of experiment: flow cytometry, SKOV-3 (HER2+) cells, tenfold dilutions 0.001-1000 nM.
Experiment [7] concerns the target T1, Biotinylated Human Her2/ErbB2 Protein, …. As to the kind of experiment: BLI (Octet), biotinylated HER2 on streptavidin sensor, VHH 1.875-60 nM. The source holds these as a separate data set.
The target is the same in experiment [8]. In words: ELISA on HER2, tenfold dilutions 0-1000 nM; the HER2 form is not stated for this ELISA, Table 17 lists only the biotinylated HER2.

Like-named read-outs stand apart in the source and are kept apart here.

T3 sequence (P02769 25-607 limits assumed): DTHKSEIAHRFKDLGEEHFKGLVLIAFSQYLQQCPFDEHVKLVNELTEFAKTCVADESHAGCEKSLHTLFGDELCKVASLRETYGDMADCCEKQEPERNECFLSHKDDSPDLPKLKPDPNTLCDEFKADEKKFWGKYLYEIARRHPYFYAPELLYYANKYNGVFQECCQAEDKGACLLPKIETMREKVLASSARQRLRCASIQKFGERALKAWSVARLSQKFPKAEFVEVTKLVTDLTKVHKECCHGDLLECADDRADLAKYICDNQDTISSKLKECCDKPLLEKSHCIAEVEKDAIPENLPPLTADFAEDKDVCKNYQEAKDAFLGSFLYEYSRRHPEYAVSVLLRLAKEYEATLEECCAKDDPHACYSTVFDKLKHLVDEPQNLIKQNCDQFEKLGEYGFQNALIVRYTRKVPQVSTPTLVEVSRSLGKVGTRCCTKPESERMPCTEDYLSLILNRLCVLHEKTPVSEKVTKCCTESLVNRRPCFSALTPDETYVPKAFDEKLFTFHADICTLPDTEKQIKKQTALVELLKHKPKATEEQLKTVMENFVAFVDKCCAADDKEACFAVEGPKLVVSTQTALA

B1: A1 anti-HER2 VHH (VHH)
VHH: QVQLQESGGGLVQPGGSLRLSCAASGHTLSTYVVAWFRQAPGKERESVAAIGWSSRSPYYPDSVKGRFTISEDNTKNTVYLQMNSLKPDDTAVYYCAADSYPRRWDRESDFGSWGQGTQVTVSS
notes: Llama VHH expressed in WK6 E. coli with C-terminal c-myc and His tags; also called A1 clone
For orientation: Kd means the equilibrium constant for the complex coming apart. Low readings indicate higher affinity, high ones lower affinity. As a reminder, the koff is the first-order rate constant of dissociation. The term kon denotes the rate constant with which the complex forms. A high value points to faster complex formation. Consider B1, for which the Kd in [1] was found to be 1.3 nM. Moreover, in [2], the “FITC+ (%)” value was 98.8%, the “FITC- (%)” value is 1.23% and the “Mean (MFI)” value was determined as 97000. Besides, in the experiment with Bovine serum albumin, the binding result is given as “no binding (tested: extract, conc. not given)”. Besides, in the experiment with HER1, the binding result is “no binding (tested: extract, conc. not given)”. Besides, the binding result with HER3 is on record as “no binding (tested: extract, conc. not given)”. In addition, in experiment [3], the “FITC+ (%)” value worked out at 94.1%, the “FITC- (%)” value stood at 5.78% and the “Mean (MFI)” value is 101000. In experiment [4], this molecule returned a Kd of 1.32 nM, a koff of 0.000411 s⁻¹ and a kon of 309000 M⁻¹ s⁻¹.

B2: A3 (VHH)
VHH: QVQLQESGGGLVQAGGSLRISCAASGRTSDLFPVGWFRQAPGKEREIVAAIRWSGGVIGYGDPVKGRFTISTDNAKNTVYLQMNSLKPEDTAVYYCAAGPRESTVTWNYWGQGTHVTVSS
notes: not the anti-CD16a clone A3; also called A3 anti-HER2 VHH
As for B2, the binding result with Bovine serum albumin is given as “no binding (tested: extract, conc. not given)”; in experiment [5], “binds”; with HER1 it was “no binding (tested: extract, conc. not given)”; with HER3 it was “no binding (tested: extract, conc. not given)”.

B3: E5 anti-HER2 VHH (VHH)
VHH: QVQLQESGGGLVQAGGSLRLDCAASGRTLSSYVVGWFRQAPGKEREVVAAIGWSRTSTFYTDSVKGRFTISRDNTENTVYLQMNSLKPGDTAVYYCAADSSPRRWDRESDFGSWGQGTQVTVSS
notes: also called E5 clone
In general, EC50 (read off the curve) refers to the midpoint of the concentration-response curve. For B3, the figures for the “EC50 (read off the curve)” value in experiment [6] and in experiment [8] were around 1 nM and around 0.3 nM, respectively. Moreover, the affinity in experiment [1], expressed as Kd, was 0.724 nM. Besides, the “FITC+ (%)” value in experiment [2] is 98.4%; in [3], 93.3%. The “FITC- (%)” value turned out to be 1.59% in experiment [2] and 6.45% in [3]. In addition, the “Mean (MFI)” value in experiment [2] stood at 102000; in experiment [3], 106000. The binding result in the experiment with Bovine serum albumin is listed as “no binding (tested: extract, conc. not given)”; with HER1, “no binding (tested: extract, conc. not given)”; with HER3, “no binding (tested: extract, conc. not given)”. Besides, the koff in [7] stood at 0.000702 s⁻¹. The kon in experiment [7] came to 969000 M⁻¹ s⁻¹.

B4: C9 (VHH)
VHH: QVQLQESGGGLVQAGGSLRLSCAASGRTVSRYSMGWFRQAPGKEREFVAAIAWFGGWPYYADSVKGRFTISRDNAKNTVYLQMNSLKPEDTAVYYCAARQWARTWDYWGQGTQVTVSS
notes: also called C9 anti-HER2 VHH
For B4, the binding result with Bovine serum albumin is reported as “no binding (tested: extract, conc. not given)”; in [5], “binds”; in the experiment with HER1, “no binding (tested: extract, conc. not given)”; with HER3, “no binding (tested: extract, conc. not given)”.
